Measurements taken from PMC3185027, “Structural and functional roles of deamidation of N146 and/or truncation of NH2- or COOH-termini in human αB-crystallin” (Molecular Vision, 2011).
Where a chain is given by its changes, count along the chain named. Names may count otherwise.

B1: αB-CT (COOH-terminal extension deleted αB-crystallin) (domain or fragment, human, UniProt P02511 1-150, looked up)
chain: MDIAIHHPWIRRPFFPFHSPSRLFDQFFGEHLLESDLFPTSTSLSPFYLRPPSFLRAPSWFDTGLSEMRLEKDRFSVNLDVKHFSPEELKVKVLGDVIEVHGKHEERQDEHGFISREFHRKYRIPADVDPLTITSSLSSDGVLTVNGPRK
notes: human αB-crystallin lacking the COOH-terminal extension (residues 151-175); containing residues 1-150; Cloned in pET 100 Directional TOPO; also called COOH-terminally truncated αB; not shown: His6, N-terminal, kept
B2: wild-type (WT) αB-crystallin (natural protein, human, UniProt P02511 1-175, looked up)
chain: MDIAIHHPWIRRPFFPFHSPSRLFDQFFGEHLLESDLFPTSTSLSPFYLRPPSFLRAPSWFDTGLSEMRLEKDRFSVNLDVKHFSPEELKVKVLGDVIEVHGKHEERQDEHGFISREFHRKYRIPADVDPLTITSSLSSDGVLTVNGPRKQVSGPERTIPITREEKPAVTAAPKK
notes: human αB-crystallin, full-length protein containing all residues from 1 to 175; Cloned in pET 100 Directional TOPO; also called His-tagged WT αB-crystallin; not shown: His6, N-terminal, kept
B3: αB N146D (deamidated αB-crystallin mutant) (natural protein, human, UniProt P02511 1-175, looked up)
chain: B2 chain with N146D
notes: human αB-crystallin, residues 1-175, Asn 146 changed to Asp to mimic deamidation; Cloned in pET 100 Directional TOPO; not shown: His6, N-terminal, kept

Biological target: the molecule itself
Test: SEC-MALS; HPLC-coupled multi-angle laser light scattering (Wyatt), 18 angles; samples in 50 mM sodium phosphate pH 7.8, filtered through 0.22 μm; absolute molar mass of homomers

Binding result, binds:
B1
B2
B3
